Measurements taken from doi:10.1101/773283 (bioRxiv, 2020).
Where “and” joins values, the source holds several entries; their conditions need not be identical. Equal values may be shown once.

B1: human vinculin HV 1-834 containing the D1-D4 domains (domain or fragment, UniProt P18206-2 1-834, looked up)
chain: MPVFHTRTIESILEPVAQQISHLVIMHEEGEVDGKAIPDLTAPVAAVQAAVSNLVRVGKETVQTTEDQILKRDMPPAFIKVENACTKLVQAAQMLQSDPYSVPARDYLIDGSRGILSGTSDLLLTFDEAEVRKIIRVCKGILEYLTVAEVVETMEDLVTYTKNLGPGMTKMAKMIDERQQELTHQEHRVMLVNSMNTVKELLPVLISAMKIFVTTKNSKNQGIEEALKNRNFTVEKMSAEINEIIRVLQLTSWDEDAWASKDTEAMKRALASIDSKLNQAKGWLRDPSASPGDAGEQAIRQILDEAGKVGELCAGKERREILGTCKMLGQMTDQVADLRARGQGSSPVAMQKAQQVSQGLDVLTAKVENAARKLEAMTNSKQSIAKKIDAAQNWLADPNGGPEGEEQIRGALAEARKIAELCDDPKERDDILRSLGEISALTSKLADLRRQGKGDSPEARALAKQVATALQNLQTKTNRAVANSRPAKAAVHLEGKIEQAQRWIDNPTVDDRGVGQAAIRGLVAEGHRLANVMMGPYRQDLLAKCDRVDQLTAQLADLAARGEGESPQARALASQLQDSLKDLKARMQEAMTQEVSDVFSDTTTPIKLLAVAATAPPDAPNREEVFDERAANFENHSGKLGATAEKAAAVGTANKSTVEGIQASVKTARELTPQVVSAARILLRNPGNQAAYEHFETMKNQWIDNVEKMTGLVDEAIDTKSLLDASEEAIKKDLDKCKVAMANIQPQMLVAGATSIARRANRILLVAKREVENSEDPKFREAVKAASDELSKTISPMVMDAKAVAGNISDPGLQKSFLDSGYRILGAVAKVREA

What was measured:
[1] = target: cysteine-clamped vinculin D1D2 Q68C A396C (human) (UniProt P18206); assay: native gel or EMSA
[2] = target: human vinculin D1 and D2 domains (D1D2) (human) (UniProt P18206); assay: native gel or EMSA
[3] = target: human vinculin D1 subdomain (HV 1-258) (human) (UniProt P18206); assay: native gel or EMSA
[4] = target: full-length human vinculin (HV) (human) (UniProt P18206); assay: ELISA
[5] = target: human vinculin D1 and D2 domains (D1D2) (human) (UniProt P18206); assay: SEC-MALS
[6] = target: human vinculin D1 subdomain (HV 1-258) (human) (UniProt P18206); assay: SEC-MALS
[7] = target: human vinculin HV 1-834 containing the D1-D4 domains (human) (UniProt P18206); assay: SEC-MALS
SEC-MALS = target: the molecule itself; assay: SEC-MALS

Molecule | stoichiometry N [1] | stoichiometry N [2] | stoichiometry N [3] | EC50 [4] [nM] | other results
IpaA derivative containing VBS1-2 (A524) (from UniProt P18010 524-633) (domain or fragment) | 1 | 1 | 1 | 3.7 | stoichiometry N (D1D2 per A524) [5]: 1 and 2
IpaA derivative containing VBS1-3 (A483) (from UniProt P18010 483-633) (domain or fragment) | 1 | 1 | 1 | 6.1 | stoichiometry N (A483 per D1D2) [2]: 1 and 2; stoichiometry N (D1D2 per A483) [5]: 2; stoichiometry N [6]: 3 D1 per A483; stoichiometry N (D1D4 per A483) [7]: 1 and 2
human vinculin D1 and D2 domains (D1D2) (from UniProt P18206-2 1-492) (domain or fragment) | – | – | – | – | stoichiometry N [5]: 3
B1 | – | – | – | – | stoichiometry N (SEC-MALS): 3
